Source: patent publication US20040241163A1 (published 2004)

T1: interferon-γ (UniProt P01579 24-166)
T1 construct: also called IFN-γ
T1 sequence: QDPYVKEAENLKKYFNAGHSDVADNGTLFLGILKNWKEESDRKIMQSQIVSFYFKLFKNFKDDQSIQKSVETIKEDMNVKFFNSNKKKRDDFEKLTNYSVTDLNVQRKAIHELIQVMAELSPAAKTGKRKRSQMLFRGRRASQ

B1: MIP-1α (ligand)
chain: SLAADTPTACCFSYTSRQIPQNFIADYFETSSQCSKPGVIFLTKRSRQVCADPSEEWVQKYVSDLELSA
modifications: also: 125I-labeled in tracer form, position not given here
notes: also called MIP-1 alpha; 125I-labeled MIP-1α
B2: RANTES (regulated upon activation, normal T cell expressed and secreted) (ligand)
chain: SPYSSDTTPCCFAYIARPLPRAHIKEYFYTSGKCSNPAVVFVTRKNRQVCANPEKKWVREYINSLEMS
modifications: also: 125I-labeled in tracer form, position not given here
notes: also called 125I-labeled RANTES; 125I-RANTES
B3: secreted HCMV UL21.5 protein (UL21.5 activity in concentrated supernatant of wild-type HCMV-infected human fibroblasts) (other)
chain: APSQKSKRSVTVEQPSTSADGSNTTPSKNVTLSQGGSTTDGDEDYSGEYDVLITDGDGSEHQQPQKTDEHKENQAKENEKKIQ
modifications: highly glycosylated (sites not given)
notes: Not purified: tested as 300-fold concentrated serum-free culture medium of fibroblasts infected with wild-type AD169 virus; Secreted forms of 45 kDa and 25 kDa are cited; also called Wt supernatant; HCMV-infected cell supernatant

Legend:
[1] = molecular target: B3; test: EDC cross-linking of 125I-chemokine to infected cell supernatant, SDS-PAGE autoradiogram
[2] = molecular target: B3; test: summary in the description of the Scatchard analysis of Example 4 (rounded value)
[3] = molecular target: B3; test: Scatchard analysis, 125I-RANTES (25-500 pM) with infected cell supernatant, PEG precipitation and filtration
interferon-γ = molecular target: T1, interferon-γ; test: competition of unlabeled cytokine with 125I-RANTES for cross-linking to UL21.5

B1
binding result [1]: no binding (tested: 0.4 nM 125I-labeled chemokine)

B2
Kd [2]: 0.15 nM | Kd [3]: 0.147 nM

B3
binding result (interferon-γ): no binding
